Blank lines part the entries; values can stand above or below the binder they belong to.
Legend:
Test in all cases: two-hybrid library CCNG1;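 note: natural log of median RNA to DNA barcode read ratio; higher means stronger binding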
4H319-bH = target: T1, 4H319-bH
T1 chain: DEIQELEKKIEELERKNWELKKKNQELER

4H2473-bH = target: T2, 4H2473-bH
T2 chain: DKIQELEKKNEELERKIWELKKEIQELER

4H348-bH = target: T3, 4H348-bH
T3 chain: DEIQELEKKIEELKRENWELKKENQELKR

4H2223-bH = target: T4, 4H2223-bH
T4 chain: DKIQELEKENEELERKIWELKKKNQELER

4H2717-bH = target: T5, 4H2717-bH
T5 chain: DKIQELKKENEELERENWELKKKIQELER

4H492-bH = target: T6, 4H492-bH
T6 chain: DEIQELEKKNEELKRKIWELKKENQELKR

4H3277-bH = target: T7, 4H3277-bH
T7 chain: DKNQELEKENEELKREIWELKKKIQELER

4H2503-bH = target: T8, 4H2503-bH
T8 chain: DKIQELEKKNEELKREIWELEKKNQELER

4H2588-bH = target: T9, 4H2588-bH
T9 chain: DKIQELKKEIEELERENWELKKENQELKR

4H477-bH = target: T10, 4H477-bH
T10 chain: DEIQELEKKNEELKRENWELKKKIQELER

4H40-bH = target: T11, 4H40-bH
T11 chain: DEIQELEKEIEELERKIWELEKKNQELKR

4H2692-bH = target: T12, 4H2692-bH
T12 chain: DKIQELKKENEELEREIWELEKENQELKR

4H2915-bH = target: T13, 4H2915-bH
T13 chain: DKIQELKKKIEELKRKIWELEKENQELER

4H2438-bH = target: T14, 4H2438-bH
T14 chain: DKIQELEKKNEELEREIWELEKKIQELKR

4H2134-bH = target: T15, 4H2134-bH
T15 chain: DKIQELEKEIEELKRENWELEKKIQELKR

4H3057-bH = target: T16, 4H3057-bH
T16 chain: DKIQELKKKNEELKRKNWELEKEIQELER

4H2839-bH = target: T17, 4H2839-bH
T17 chain: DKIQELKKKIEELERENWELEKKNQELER

4H3858-bN = target: T18, 4H3858-bN
T18 chain: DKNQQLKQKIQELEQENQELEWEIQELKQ

4H2143-bH = target: T19, 4H2143-bH
T19 chain: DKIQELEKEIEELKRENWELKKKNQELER

4H741-bH = target: T20, 4H741-bH
T20 chain: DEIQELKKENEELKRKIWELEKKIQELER

P12A-bN = target: T21, P12A-bN
T21 chain: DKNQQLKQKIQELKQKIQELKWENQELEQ

P7A-bN = target: T22, P7A-bN
T22 chain: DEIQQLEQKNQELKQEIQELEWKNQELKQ

P9A-bN = target: T23, P9A-bN
T23 chain: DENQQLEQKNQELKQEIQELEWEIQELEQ

P5A-bN = target: T24, P5A-bN
T24 chain: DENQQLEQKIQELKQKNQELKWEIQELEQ

P6A-bN = target: T25, P6A-bN
T25 chain: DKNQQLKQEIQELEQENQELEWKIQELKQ

P8A-bN = target: T26, P8A-bN
T26 chain: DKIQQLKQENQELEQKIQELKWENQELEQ

P4A-bN = target: T27, P4A-bN
T27 chain: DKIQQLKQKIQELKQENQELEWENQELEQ

P1A-bN = target: T28, P1A-bN
T28 chain: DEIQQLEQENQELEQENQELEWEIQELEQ

P2A-bN = target: T29, P2A-bN
T29 chain: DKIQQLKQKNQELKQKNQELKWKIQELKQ

P3A-bN = target: T30, P3A-bN
T30 chain: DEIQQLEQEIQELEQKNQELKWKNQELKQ

O12-bP = target: T31, O12-bP
T31 chain: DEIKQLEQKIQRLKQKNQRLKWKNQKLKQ

O4-bP = target: T32, O4-bP
T32 chain: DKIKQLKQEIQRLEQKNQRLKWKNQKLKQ

O9-bP = target: T33, O9-bP
T33 chain: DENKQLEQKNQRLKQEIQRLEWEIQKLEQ

O6-bP = target: T34, O6-bP
T34 chain: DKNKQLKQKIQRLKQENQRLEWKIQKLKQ

O13-bP = target: T35, O13-bP
T35 chain: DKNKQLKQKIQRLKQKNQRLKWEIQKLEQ

O2-bP = target: T36, O2-bP
T36 chain: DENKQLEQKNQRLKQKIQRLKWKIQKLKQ

O7-bP = target: T37, O7-bP
T37 chain: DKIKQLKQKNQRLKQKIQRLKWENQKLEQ

O5-bP = target: T38, O5-bP
T38 chain: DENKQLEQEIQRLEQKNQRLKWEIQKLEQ

O3-bP = target: T39, O3-bP
T39 chain: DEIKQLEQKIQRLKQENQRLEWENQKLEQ

O15-bP = target: T40, O15-bP
T40 chain: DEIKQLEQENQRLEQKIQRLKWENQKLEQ

O14-bP = target: T41, O14-bP
T41 chain: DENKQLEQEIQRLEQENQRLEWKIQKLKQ

O11-bP = target: T42, O11-bP
T42 chain: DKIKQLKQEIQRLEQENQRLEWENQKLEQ

O16-bP = target: T43, O16-bP
T43 chain: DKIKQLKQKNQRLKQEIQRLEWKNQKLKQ

O8-bP = target: T44, O8-bP
T44 chain: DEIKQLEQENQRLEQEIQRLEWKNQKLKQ

interaction score (4H319-bH): 0.925
interaction score (4H2473-bH): 0.459
interaction score (4H348-bH): -0.551
interaction score (4H2223-bH): -0.653
interaction score (4H2717-bH): 1.07
interaction score (4H492-bH): 0.362
interaction score (4H3277-bH): -0.74
interaction score (4H2503-bH): 1.45
interaction score (4H2588-bH): 1.01
interaction score (4H477-bH): 1.08
interaction score (4H40-bH): -0.995
interaction score (4H2692-bH): 0.18
interaction score (4H2915-bH): 1.56
interaction score (4H2438-bH): 0.0398
interaction score (4H2134-bH): 0.746
interaction score (4H3057-bH): 1.45
interaction score (4H2839-bH): 0.785
interaction score (4H3858-bN): 0.573
interaction score (4H2143-bH): 0.0686
interaction score (4H741-bH): 0.37
Binder: DKIQELEKEIEELKRENWELEKKIQELKR [4H2134-bH]

interaction score (P12A-bN): -0.758
interaction score (P7A-bN): -0.617
interaction score (P9A-bN): -1.28
interaction score (P5A-bN): -1.2
interaction score (P6A-bN): 0.295
interaction score (P8A-bN): -1.71
interaction score (P4A-bN): -0.221
interaction score (P1A-bN): -1.71
interaction score (P2A-bN): -0.94
interaction score (P3A-bN): 1.82
Binder: DKNQQLKQKIQELKQKIQELKWENQELEQ [P12A-bN]

interaction score (O12-bP): 0.837
interaction score (O4-bP): 0.69
interaction score (O9-bP): -0.645
interaction score (O6-bP): -0.577
interaction score (O13-bP): -1.07
interaction score (O2-bP): -1.44
interaction score (O7-bP): -1.03
interaction score (O5-bP): -0.395
interaction score (O3-bP): 0.514
interaction score (O15-bP): -0.41
interaction score (O14-bP): -0.129
interaction score (O11-bP): -0.79
interaction score (O16-bP): -1.05
interaction score (O8-bP): -0.376
Binder: DKIKQLKQEIQRLEQENQRLEWENQKLEQ [O11-bP]

From publication PMC10397247
